Measured values from IntAct's records for PubMed 18772112.

B1: Catenin beta-1 (Homo sapiens), P35222 (parent)
chain: MATQADLMELDMAMEPDRKAAVSHWQQQSYLDSGIHSGATTTAPSLSGKGNPEEEDVDTSQVLYEWEQGFSQSFTQEQVADIDGQYAMTRAQRVRAAMFPETLDEGMQIPSTQFDAAHPTNVQRLAEPSQMLKHAVVNLINYQDDAELATRAIPELTKLLNDEDQVVVNKAAVMVHQLSKKEASRHAIMRSPQMVSAIVRTMQNTNDVETARCTAGTLHNLSHHREGLLAIFKSGGIPALVKMLGSPVDSVLFYAITTLHNLLLHQEGAKMAVRLAGGLQKMVALLNKTNVKFLAITTDCLQILAYGNQESKLIILASGGPQALVNIMRTYTYEKLLWTTSRVLKVLSVCSSNKPAIVEAGGMQALGLHLTDPSQRLVQNCLWTLRNLSDAATKQEGMEGLLGTLVQLLGSDDINVVTCAAGILSNLTCNNYKNKMMVCQVGGIEALVRTVLRAGDREDITEPAICALRHLTSRHQEAEMAQNAVRLHYGLPVVVKLLHPPSHWPLIKATVGLIRNLALCPANHAPLREQGAIPRLVQLLVRAHQDTQRRTSMGGTQQQFVEGVRMEEIVEGCTGALHILARDVHNRIVIRGLNTIPLFVQLLYSPIENIQRVAAGVLCELAQDKEAAEAIEAEGATAPLTELLHSRNEGVATYAAAVLFRMSEDKPQDYKKRLSVELTSSLFRTEPMAWNETADLGLDIGAQGEPLGYRQDDPSYRSFHSGGYGQDALGMDPMMEHEMGGHHPGADYPVDGLPDLGHAQDLMDGLPPGDSNQLAWFDTDL

Variants of: B1
Conditions: with runx3_human RUNX3, Q13761
Sequence of runx3_human RUNX3, Q13761 (Q13761 whole entry): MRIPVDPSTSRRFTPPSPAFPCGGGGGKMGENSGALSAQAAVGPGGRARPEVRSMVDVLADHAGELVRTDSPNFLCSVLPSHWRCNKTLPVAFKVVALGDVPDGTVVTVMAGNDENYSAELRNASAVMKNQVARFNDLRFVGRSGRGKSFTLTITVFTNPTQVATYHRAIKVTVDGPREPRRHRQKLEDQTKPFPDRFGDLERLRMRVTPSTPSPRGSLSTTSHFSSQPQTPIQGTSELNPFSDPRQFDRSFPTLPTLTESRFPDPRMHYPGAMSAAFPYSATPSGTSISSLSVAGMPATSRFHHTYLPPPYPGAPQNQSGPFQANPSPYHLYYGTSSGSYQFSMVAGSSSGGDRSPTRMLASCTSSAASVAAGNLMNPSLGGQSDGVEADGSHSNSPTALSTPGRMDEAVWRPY

effect of a mutation on the interaction	Variant
increasing interaction	S33Y
